Measured values from patent publication US11230581B2, “Peptides and combination of peptides for use in immunotherapy against ovarian cancer and other cancers” (Immatics Biotechnologies GmbH, priority 2015, dated 2022).

The substances below were run against HLA-A*02:01 (Homo sapiens, UniProt P04439, D140Y/D185E/D98H/E176V/E277Q/G131W/G231S/I119V/I121R/I166T/I218V/L300P/L318F/N151K/N90K/P208A/P217A/Q86G/Q94H/R138H/R169H/T345S) (assay: MHC binding assay (UV-ligand exchange, β2m ELISA, peptide exchange yield)). Settings: binding of HLA-class I restricted peptides to HLA-A*02:01, UV-ligand exchange.
Outline: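 Peptide-MHC complexes formed by UV-ligand exchange, cleaving a UV-sensitive placeholder peptide in favour of the test peptide. Exchange yield measured by ELISA: monomers diluted 100-fold onto streptavidin-coated plates, 1 h 37 °C, detected with 2 ug/ml HRP anti-β2m and TMB, absorbance at 450 nm.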

| Peptide exchange (MHC class I binding score, peptide exchange yield) | Substance |
| --- | --- |
| “++” (≥20% = ++) | 603 (FLIEPEHVNTV; listed as Homo sapiens) [compound 603] |
| “+++” (≥50 = +++) | 604 (SILDRDDIFV; listed as Homo sapiens) [compound 604] |
| “+++” (≥50 = +++) | 605 (KLYEAVPQL; listed as Homo sapiens) [compound 605] |
| “+++” (≥50 = +++) | 606 (ALWETEVYI; listed as Homo sapiens) [compound 606] |
| “+++” (≥50 = +++) | 607 (RLYSGISGLEL; listed as Homo sapiens) [compound 607] |
| “+++” (≥50 = +++) | 608 (SLLSVSHAL; listed as Homo sapiens) [compound 608] |
| “+++” (≥50 = +++) | 609 (ALWKQLLEL; listed as Homo sapiens) [compound 609] |
| “+++” (≥50 = +++) | 610 (LLAPTPYIIGV; listed as Homo sapiens) [compound 610] |
| “++++” (≥75% = ++++) | 611 (YLLDDGTLVV; listed as Homo sapiens) [compound 611] |
| “+++” (≥50 = +++) | 612 (YLYNEGLSV; listed as Homo sapiens) [compound 612] |
| “+++” (≥50 = +++) | 613 (RLLPPGAVVAV; listed as Homo sapiens) [compound 613] |
| “+++” (≥50 = +++) | 614 (LLLPDQPPYHL; listed as Homo sapiens) [compound 614] |
| “++” (≥20% = ++) | 615 (VLPPDTDPA; listed as Homo sapiens) [compound 615] |
| “+++” (≥50 = +++) | 616 (VLIDEVESL; listed as Homo sapiens) [compound 616] |
| “+++” (≥50 = +++) | 617 (ALMYESEKVGV; listed as Homo sapiens) [compound 617] |
| “+++” (≥50 = +++) | 618 (VLFDSESIGIYV; listed as Homo sapiens) [compound 618] |
| “+++” (≥50 = +++) | 619 (ALQDRVPLA; listed as Homo sapiens) [compound 619] |
| “++++” (≥75% = ++++) | 620 (KLLNKIYEA; listed as Homo sapiens) [compound 620] |
| “++++” (≥75% = ++++) | 621 (VLMDRLPSLL; listed as Homo sapiens) [compound 621] |
| “+++” (≥50 = +++) | 622 (RLLGEEVVRVLQA; listed as Homo sapiens) [compound 622] |
| “+++” (≥50 = +++) | 623 (YLVEDIQHI; listed as Homo sapiens) [compound 623] |
| “+++” (≥50 = +++) | 635 (SLDSTLHAV; listed as Homo sapiens) [compound 635] |
